Target: human Mdm2 (1-125) (human)
Assay: fluorescence polarisation

Chain of human Mdm2 (1-125) (human) (Q00987 1-125): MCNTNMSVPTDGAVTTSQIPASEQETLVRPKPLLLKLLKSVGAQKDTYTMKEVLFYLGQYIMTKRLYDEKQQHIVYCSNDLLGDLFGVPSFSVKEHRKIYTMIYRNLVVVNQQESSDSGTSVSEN

| Substance | Kd [nM] |
| --- | --- |
| MP-444: Ac-K(N3)-TF(X)EYWAQ(Cba)(X)EAFAAF-NH2 (peptide) | 1.5 |
| MP-793 (all-D di-alkyne stapled analog of ^dPMI-δ(5-12 staple)) (peptide) | < 1 |
| azide-ATSP-7041 (L1D, E5D, A8D) (peptide) | 5 |
| azide-ATSP-7041 (L1N, E5N, A8N, S12N, A13N, A14N) (peptide) | 15 |
| azide-ATSP-7041 (MP-081) (peptide) | 5 |
| azide-ATSP-7041 (MP-081) E5P (peptide) | 7800 |
| azide-ATSP-7041 (MP-081) with Cba10 substituted with Ala (peptide) | 115 |
| azide-ATSP-7041 (MP-081) with Cba10 substituted with Leu (peptide) | 56 |

Reference: paper doi:10.1101/2023.02.25.530030
